B1: IL-18 variant G3Q, E6S, S55V, T63A, N91T (ligand)
chain: YFQKLSSKLSVIRNLNDQVLFIDQGNRPLFEDMTDSDMRDNAPRTIFIISMYKDVQPRGMAVAISVKSEKISTLSSENKIISFKEMNPPDTIKDTKSDIIFFQRSVPGHDNKMQFESSSYEGYFLASEKERDLFKLILKKEDELGDRSIMFTVQNED
B2: IL-18 variant G3S, E6G, D54V, S55K, T63S, N91Y, R104T (ligand)
chain: YFSKLGSKLSVIRNLNDQVLFIDQGNRPLFEDMTDSDMRDNAPRTIFIISMYKVKQPRGMAVSISVKSEKISTLSSENKIISFKEMNPPDYIKDTKSDIIFFQTSVPGHDNKMQFESSSYEGYFLASEKERDLFKLILKKEDELGDRSIMFTVQNED
B3: hIL18 (G3V, K53S, M60K) - KiH (Fc fusion)
chain: YFVKLESKLSVIRNLNDQVLFIDQGNRPLFEDMTDSDMRDNAPRTIFIISMYSDSQPRGKAVTISVKSEKISTLSSENKIISFKEMNPPDNIKDTKSDIIFFQRSVPGHDNKMQFESSSYEGYFLASEKERDLFKLILKKEDELGDRSIMFTVQNED
B4: IL-18 variant E6G, D54A, S55K, T63S, N91K, Q114R (ligand)
chain: YFGKLGSKLSVIRNLNDQVLFIDQGNRPLFEDMTDSDMRDNAPRTIFIISMYKAKQPRGMAVSISVKSEKISTLSSENKIISFKEMNPPDKIKDTKSDIIFFQRSVPGHDNKMRFESSSYEGYFLASEKERDLFKLILKKEDELGDRSIMFTVQNED
B5: IL-18 variant G3E, E6H, R27S, D54A, S55T, T63S, N91F, R104S (ligand)
chain: YFEKLHSKLSVIRNLNDQVLFIDQGNSPLFEDMTDSDMRDNAPRTIFIISMYKATQPRGMAVSISVKSEKISTLSSENKIISFKEMNPPDFIKDTKSDIIFFQSSVPGHDNKMQFESSSYEGYFLASEKERDLFKLILKKEDELGDRSIMFTVQNED
B6: IL-18 variant M60K, D157E (ligand)
chain: YFGKLESKLSVIRNLNDQVLFIDQGNRPLFEDMTDSDMRDNAPRTIFIISMYKDSQPRGKAVTISVKSEKISTLSSENKIISFKEMNPPDNIKDTKSDIIFFQRSVPGHDNKMQFESSSYEGYFLASEKERDLFKLILKKEDELGDRSIMFTVQNEE
B7: IL-18 variant G3Q, E6K, D54S, S55P, T63S, N91S, R104Q (ligand)
chain: YFQKLKSKLSVIRNLNDQVLFIDQGNRPLFEDMTDSDMRDNAPRTIFIISMYKSPQPRGMAVSISVKSEKISTLSSENKIISFKEMNPPDSIKDTKSDIIFFQQSVPGHDNKMQFESSSYEGYFLASEKERDLFKLILKKEDELGDRSIMFTVQNED

Key:
Experiment in all cases: cell-based or functional assay
[1] = target: T1, IL-18 receptor (IL-18Rα and IL-18Rβ) (UniProt Q13478 19-541; O95256 20-599, limits assumed)
T1 sequence (looked up) 1: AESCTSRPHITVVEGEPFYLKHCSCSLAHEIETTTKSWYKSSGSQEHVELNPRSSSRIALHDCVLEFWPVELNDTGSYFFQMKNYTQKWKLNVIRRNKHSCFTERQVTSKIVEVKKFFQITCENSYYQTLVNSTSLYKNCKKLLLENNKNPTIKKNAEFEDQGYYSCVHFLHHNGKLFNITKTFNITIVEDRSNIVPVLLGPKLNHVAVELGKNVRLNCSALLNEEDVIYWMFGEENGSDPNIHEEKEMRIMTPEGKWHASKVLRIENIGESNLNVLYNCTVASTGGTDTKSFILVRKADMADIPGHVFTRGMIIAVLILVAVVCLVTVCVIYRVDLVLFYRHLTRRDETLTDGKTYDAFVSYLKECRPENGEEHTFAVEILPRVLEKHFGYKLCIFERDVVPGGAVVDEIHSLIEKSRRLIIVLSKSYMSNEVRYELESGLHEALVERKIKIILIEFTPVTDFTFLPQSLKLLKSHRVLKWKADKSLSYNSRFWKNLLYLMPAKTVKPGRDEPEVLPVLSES
T1 sequence (looked up) 2: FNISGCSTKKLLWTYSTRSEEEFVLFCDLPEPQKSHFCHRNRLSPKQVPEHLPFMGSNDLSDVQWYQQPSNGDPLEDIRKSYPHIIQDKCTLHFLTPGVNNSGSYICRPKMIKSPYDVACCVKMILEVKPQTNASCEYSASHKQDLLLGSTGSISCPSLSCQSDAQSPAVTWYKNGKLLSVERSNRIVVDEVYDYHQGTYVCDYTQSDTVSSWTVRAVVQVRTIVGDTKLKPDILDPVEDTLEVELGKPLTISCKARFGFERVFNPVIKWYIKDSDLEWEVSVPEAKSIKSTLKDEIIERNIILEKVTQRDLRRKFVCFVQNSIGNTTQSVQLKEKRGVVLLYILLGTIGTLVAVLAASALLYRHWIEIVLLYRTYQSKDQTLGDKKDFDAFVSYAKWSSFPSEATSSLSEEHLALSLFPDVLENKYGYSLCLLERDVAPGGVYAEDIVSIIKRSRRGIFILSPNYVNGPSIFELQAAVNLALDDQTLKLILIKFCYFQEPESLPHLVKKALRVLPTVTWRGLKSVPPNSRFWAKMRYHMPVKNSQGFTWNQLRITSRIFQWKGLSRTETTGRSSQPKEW

[2] = target: T2, interleukin 18 binding protein (IL-18BP) (UniProt O95998 31-194)
T2 sequence (looked up): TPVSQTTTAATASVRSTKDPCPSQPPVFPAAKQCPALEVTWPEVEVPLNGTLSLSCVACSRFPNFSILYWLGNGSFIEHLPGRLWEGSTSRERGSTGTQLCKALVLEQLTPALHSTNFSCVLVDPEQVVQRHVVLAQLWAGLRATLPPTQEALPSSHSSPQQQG

[3] = target: T1, IL-18 receptor (IL-18Rα and IL-18Rβ); remark: listed apart in the source
[4] = target: T3, human IL-18 binding protein (IL-18BP) (human, UniProt O95998 31-194)
T3 sequence (looked up): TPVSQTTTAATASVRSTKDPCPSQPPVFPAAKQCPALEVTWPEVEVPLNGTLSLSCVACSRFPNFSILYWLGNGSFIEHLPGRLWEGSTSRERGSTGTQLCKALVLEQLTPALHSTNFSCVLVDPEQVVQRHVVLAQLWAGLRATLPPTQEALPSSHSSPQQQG

[5] = target: T4, IL-18 receptors on HEK-Blue IL-18 reporter cells (InvivoGen) (UniProt Q13478 19-541; O95256 20-599)
T4 sequence (looked up) 1: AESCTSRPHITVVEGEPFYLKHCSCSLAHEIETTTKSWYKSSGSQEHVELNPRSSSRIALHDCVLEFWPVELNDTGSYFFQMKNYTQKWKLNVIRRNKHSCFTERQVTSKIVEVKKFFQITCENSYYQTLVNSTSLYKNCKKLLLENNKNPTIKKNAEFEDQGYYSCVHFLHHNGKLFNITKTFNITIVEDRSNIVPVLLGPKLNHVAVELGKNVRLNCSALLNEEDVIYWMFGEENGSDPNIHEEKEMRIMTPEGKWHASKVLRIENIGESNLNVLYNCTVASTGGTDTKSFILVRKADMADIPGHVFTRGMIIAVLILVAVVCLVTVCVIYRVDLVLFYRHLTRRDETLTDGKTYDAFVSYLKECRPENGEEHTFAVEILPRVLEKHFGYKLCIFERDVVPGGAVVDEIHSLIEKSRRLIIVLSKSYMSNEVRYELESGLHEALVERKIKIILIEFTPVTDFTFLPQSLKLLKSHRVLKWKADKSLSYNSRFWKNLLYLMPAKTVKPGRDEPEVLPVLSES
T4 sequence (looked up) 2: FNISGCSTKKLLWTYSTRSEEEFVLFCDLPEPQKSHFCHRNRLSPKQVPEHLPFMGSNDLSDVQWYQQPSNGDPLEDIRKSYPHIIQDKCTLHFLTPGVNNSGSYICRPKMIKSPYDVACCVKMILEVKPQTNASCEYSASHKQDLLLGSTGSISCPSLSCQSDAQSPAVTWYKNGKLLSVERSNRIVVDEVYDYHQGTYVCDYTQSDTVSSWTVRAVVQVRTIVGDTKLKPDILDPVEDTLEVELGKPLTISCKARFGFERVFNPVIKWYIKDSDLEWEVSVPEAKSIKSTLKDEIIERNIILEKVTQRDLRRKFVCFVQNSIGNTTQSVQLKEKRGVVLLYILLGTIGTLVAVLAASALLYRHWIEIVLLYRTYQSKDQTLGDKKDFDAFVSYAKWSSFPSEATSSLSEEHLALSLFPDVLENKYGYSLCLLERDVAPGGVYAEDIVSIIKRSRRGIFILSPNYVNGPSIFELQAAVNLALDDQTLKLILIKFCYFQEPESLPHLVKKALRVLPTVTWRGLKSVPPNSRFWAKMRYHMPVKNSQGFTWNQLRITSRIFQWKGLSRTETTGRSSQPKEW

| Binder | EC50 (pM) - BP, HEK-blue re-screening [1] | EC50 (pM) + 100 nM BP, HEK-blue re-screening [2] | Ratio (HEK-blue EC50, + 100 nM BP against - BP) [2] | also measured |
| --- | --- | --- | --- | --- |
| B1 | 0.2 pM | 35.9 pM | 180 |  |
| B2 | 0.21 pM | 4.87 pM | 23.2 |  |
| B3 |  |  |  | EC50 (pM), PBMC IFN gamma assay, average [3]: 576 pM; EC50 (pM), PBMC IFN gamma assay, run 1 [3]: 589 pM; EC50 (pM), PBMC IFN gamma assay, run 2 [3]: 535 pM; EC50 (pM), PBMC IFN gamma assay, run 3 [3]: 603 pM; PBMC IFN gamma EC50 relative to WT-IL18, average [3]: 3.75; PBMC IFN gamma EC50 relative to WT-IL18, run 1 [3]: 2.45; PBMC IFN gamma EC50 relative to WT-IL18, run 2 [3]: 5.08; PBMC IFN gamma EC50 relative to WT-IL18, run 3 [3]: 3.73 |
| B4 | 0.1 pM | 2.17 pM | 21.7 |  |
| B5 | 0.34 pM | 3.01 pM | 8.9 |  |
| B6 |  |  |  | Fold Change (BP/NO BP), 50 nM BP [4]: 1.25 fold; Fold Change (BP/NO BP), 300 nM BP [4]: 9.04 fold; HEK-Blue EC50 pM, +50 nM BP [4]: 1.62 pM; HEK-blue EC50 (pM) + 300 nM BP [4]: 15.1 pM; HEK-Blue EC50 pM, NO BP (50 nM BP run) [5]: 1.3 pM; HEK-Blue EC50 pM, NO BP (300 nM BP run) [5]: 1.67 pM |
| B7 | 0.27 pM | 7.45 pM | 27.6 |  |
